Results reported in the nanobody polyreactivity screen of Harvey et al. (2022).

Assay: yeast display, Sf9 membrane polyspecificity reagent, FACS + sequencing; frameworks hold sequencing errors
How it was run: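 Nanobodies from a synthetic yeast display library (Saccharomyces cerevisiae BJ5465), induced 36–48 hours with galactose, were stained 1 hour at 4 °C with 10% biotinylated, detergent-solubilized Sf9 membrane reagent, enriched on streptavidin microbeads, then FACS-sorted. Anti-HA (expression) and streptavidin (reagent binding) fluorescence set low and high (top ~1%) gates. Polyreactivity labels come from the gate of origin. Genes were colony-PCR amplified, MiSeq 2 × 250 sequenced and filtered by CDR length.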

Sequence	polyreactivity (PSR sort gate)
QVQLQESGGGLVQAGGSLRLSCAASGYISYFVGMGWYRQAPGKEREFVASIADGSYTYYADSVKGRFTISRDNAKNTVYLQRNSLKPEDTAVYYCAVEDSWTYRFDYWGQGTQVTVSS	high polyreactivity
QVQLQESGGGLVQAGGSLRLSCAASGYISYLDFMGWYRQAPGKERELVAGITTGATTNYADSVKGRFTISRDNAKNIVYHQMNSLKPEDTAVYYCAVIGGDTRGHPYWGQGSQVTVSS	low polyreactivity
QVQLQESGGGLVQAGGSLRLSCAASSNNSTLDDMCWYRQAPGKEREFVASIGSGGITNYADSVKGRFTISRDNAKNTVYLQMNSLKPEDTAVYYCAVLNQAYTDLIYWGQGTQVTVSS	high polyreactivity
QVQLQESGGGLVQAGGSLRLSCAASSNNSTLDVMGWYRQAPGKEREFVASIGSGGITNYADSVKGRFTISRDNAKNTVYLQMNSLKPEDTAVYYCAVLNQAYTDLIYWGQGTLVTVSS	high polyreactivity
QVQLQESGGGLVQAGGSLRLSCASSGYISQSSVMGWYRQAPGKEREFVASISYGATTYYADSVKGRFTISRDNAKNTVYLQTNSPKPEDTAVYYCAVWVKRGFSHRYWGQGTQVTVSS	high polyreactivity
QVQLQESGGGLVQAGGSLRLSCAVSGTIFFPLDMGWYRQAPGREREYVAAIAEGTSTYYADSVKGRFTISRDNAKNTVYPQMYSLKPEDTAVYYCAAYRSTPQQFHYWGQGTQVTVSS	high polyreactivity
QVQLQESGGGLVQAGGSLRLSCSASGTISDSGLMGWYRQAPGKERELVAGISSGGITNDADSVNRRFTISRDNALFTVYLQMNSLKPEDTALYWGEGTQVTVSS	low polyreactivity
QVQLQESGGGLVQAGGSLRLSSAASGTIFRFRYMGWHRQAPGKERELVAGINGGTTTYYADSVIGRFTISRDNAKNTVYLQMNSLKPDDTAVYNCAAGASRLTYYDYWGQGTQVTVSS	low polyreactivity
QVQLQESGGGLVQAGGSLRLTCAASGSISAVAAMGWYRQAPGKEREFAASVNWGTNTNYADSLKGRFTISRDNAINTLYLQMNSLNPEDTAVYYCGVLPDWETRHDYWGHGTQVTVSS	low polyreactivity
QVQLQESGGGLVQAGGSLRPSCAASGNIFVPFKMGWYRMAPGKERELVASINRGSTTNYADSVKGRFTISRDNAKNTVYLQMISLKPEDTAVYYCAAIAYPDIPTYLDYDSDYFYWDQGTQVTVSS	high polyreactivity
QVQLQESGGGLVQAGGSLRQSCAASGYIFPYYSMGWYRQAPGKERGLVACIAAGTTTNYADSVKGRFTISRDNAKNTVYLQMISLKPEDAAVYYCAALNAFNTGHWYWGQGTQVTVSS	low polyreactivity
QVQLQESGGGLVQAGGSLRQSYAASGYIFPSLAMGWYRQAPGKEREFVAAIGRGSTNNYADSVKGRFTISRDNAIYTAYQQMNSLKPEDTAVYYCGAAASPLTRHLYWGQGTQVTVSS	low polyreactivity
QVQLQESGGGLVQAGGSMRLSCAASGYNTIEVTRACFARRRAKNANLLPLLITVVLPIKRIAYNTISRDNAKNTVYLQMNSLKPEDTAVYNCAANTIGTDLYEYWGQGTQATVSS	low polyreactivity
QVQLQESGGGLVQAGGSPRLSCAASDNIFPDSGMCWYRQAPGKERELVATIGFGATRNYADSVKGRFTISRDNAKNTVYLQMNSLQPEDTAVYYCAADPLNYQYFCYWGQGTQVTVSS	low polyreactivity
QVQLQESGGGLVQAGGSQRLSCAASGNISVTGFMGCYRQAPGKERELVASIGIGGTTYYADSVKGRFSISRDNEKNTVYLQMNSLKPEDTAVYYCAARYLYYAYSYWGQGTQVTVSS	low polyreactivity
QVQLQESGGGLVQAGGSQRLSCAASGYIFYFQYMGWYRQAPGKEREFVAAISDGANTNYADSVKGRFTISRDNAKNTEYLQMNSLKPEDTAVYYCAVYADENYYYIYWGQGTQVTVRS	low polyreactivity
QVQLQESGGGLVQAGGSQRLSCSASGYIFYFQYMGWYRQAPGKEREFVAAISDGANTNYADSVKGRFNISRDNAKNTEYLQMNSLKPEDTAVYYCAARSFFKMYYWGQGTQVTVSS	low polyreactivity
QVQLQESGGGLVQAGGSRRLSCAASGTIFTARFMGWYRQATGKERELVSTITDGGNTNHAESVKCRFTISRDNAKNTGSLQMNSLKPEYAAVYYCAAGEVDNDTLLYWGQGSQVTVSS	low polyreactivity
QVQLQESGGGLVQASGSLRLSCAASGNIFPDYVMGWYRLAPGKEREFVANITGGSTTNYADSVKGRFTISRDNAKNTVYLQMNSLKPEDTAVYYCAVNFGTVVLYLYWGQGTQVTVSS	high polyreactivity
QVQLQESGGGLVQEGGSLRLSCAASGNISPPADMGWYRQAPGKERELVASIGTGGTTNYADSVKGRFTISRDNAKNTVYLQMNSLKPDDTAVYYCAAVRYEYNPYDYWGEGTQVTVSS	low polyreactivity
QVQLQESGGGLVQVGGSLRLSCAASGTIFIYGFLGWNRQAPGKERELVASINLGGITNYADSVKGRFTISRDNATNTVYLQMISLKPEDTAVYYCAAYVVTGQNYGYWGQGTQVTVSS	low polyreactivity
QVQLQESGGGLVRAGGSLRLSCAASGYISTSIAMGWYRQAPGKERELVASFGGGAITNYADSVKGFTISRDNGKNSVYLQMNSLKPEDTAVYYCAVYHGDRGYYSYWGQGTQVTVSS	low polyreactivity

Sequence	polyreactivity (PSR sort gate)
QVQLQESGGGMEQAGGSLRLSCAASGYISWADYMVWYRQAPGKERELVAGIGYGSTTYYADSVKGRFTISRANAKNTAYLQMNSLKPEDTAVYYCAVGWYRDTAYKYWGQGTQVTVSS	low polyreactivity
QVQLQESGGGMVQAGGSLLWCAASGTISYNREMGWYRQAPGKERELVAGIGVGTITYYADSVKGRFTIIRDNAKNTVYLQMNSLKPEDTAVYYCAAHIDGIDSHAYCGQGTQVTVSS	low polyreactivity
QVQLQESGGGMVQAGGSLRLSCAASGYISWADYMGWYRQAPGKERELVAGIGYGSTTYYADSVKGRFTISRDNAKNTAYLQMNSLKPEDTAVYYCSVGWYRDTAYKYWGQGTQVTVSS	low polyreactivity
QVQLQESGGGMVQAGGSLRLSCAASGYISWADYMVWYRQAPGKERELVAGIGYGSTTYYADSVKGRFTISRANAKNTAYLQMNSLKPEDTAVYYCAVGWYRDTAYKYWGQGTQVTVSS	low polyreactivity
QVQLQESGGGPVLAGGSLRLSCAASGTIFVRLDMGWYRPAPGKEREFVATIGSGSSTYYADSVKGSFTISRDNVKNTVYLQMNSLQPEDTAVYYCAVSAAEQSRHYYWDQGTQVTVSS	low polyreactivity
QVQLQESGGLVQAGGSLRLSCAASGSISGRNVMGWYRQAPGKEREFVASITDGSSTNYADSVKGRFTISRDNAKNTVYLQMNSLKPKDTAVYYCAAYAQRAKSFGYWGRGTQVTVSS	low polyreactivity
QVQLQESGGRLVQAGGSMRLSCAASGTISDSGLMGWYRQAPGKERELVAGISSGGITNYADSVKGRFTISRDNAKNTVSLQMNSLKPEDTAVYWGQGTQVTVSS	low polyreactivity
QVQLQESGGVQAGGSLRLSCAASGYISRSDVMGWYRQAPGKERELVATINNGTITYYADSVKGRFTISRDNAKNTVYLQMNSLIPEDTAVHYCAVVQSDTDSLYYWGQGTQVTVSS	low polyreactivity
QVQLQESGGVQAGGSLRLSCAASGYITRSDVMGSYRQAPGKERELVATINNGTMTYYADSEKGRYTISRDNAKKTVYLQKNSQKPEDTAVHYCAVDQSDTDSLYYWGQGTQVTVSS	low polyreactivity
QVQLQESGGVQAGGSLRLSSAATGYIARSDDMGWYRQAPGKERELVATINNGTITYYADSVKGRFTISRDNAKNTVYLQMNSLKPEDTAVHYCAVVQSDTDSLYYWGQGTQVSVSS	low polyreactivity
QVQLQESGRRPGAAGGSPRMSCAASGNIFWVAVMGRYRQAPGKERELGASIGFGCTTYYADSVKCRFTISRDNAKNTVYLQMISLKPEDTAVYYCAAPHYDWGELDYWGQGTQVPVSS	low polyreactivity
QVQLQESGSGLVQAGGSLRLSCAASGNISQYNDIGWYRQAPGKEREPVATINSGSITYYADSVKGRLTISRDNAKNTVYLEMNSLKPEDTAVYYGAVKQHGFVYLEYWGQGTQVTVSR	high polyreactivity
QVQLQESGSGLVQAGGSLRLSCAASGYISLGDNMGWYRQAPGKEREFVATISVGGITYYVDSVKGRFTISRDIAKNTVYLQMNSLKPEDTAVYYCADLDIYYFRYYYWGQGTQVTVSS	low polyreactivity
QVQLQESRGGLVQAGGSLRLSCAATGTIFTDRIMGWYLQAPGKERELVAGISPGTSTNYADSVKGRFTISRDNEKNTVYLQMNSLKPEDTAVYYCAADWSTGNTLPYWGQGSQVTVSS	high polyreactivity
QVQLQESSGGLVQAGGSLRMSCAASGTIFHFHIIGWYRQAPRKEREFVAASSYGTRTYYADSVKGRFTISRDNAKNTVYLQMNSQKPEDTAVYYCAVYDYLEVYCWYWGQGTQVTVRS	low polyreactivity
QVQLQESVGGLVQAGGSLLLSCAASGNIFPTDRMGWYRQAPGKELEFVATISHGGSTNYADSVKGRFTISRDNAKNTVYLEMNSLKPEDTAVYYCAVWSLGRWRHYFWGQGTQVTVSS	low polyreactivity
QVQLQESVGGLVQAGGSLRLSCAASGNIFDADIMGRYRQAPGKERELVASITDGGSTNYADSVKGRFTISLDNAKNTVYLHMNSLKPEDTAVYYCAARPHRYTSRHGYWGQGTQVTVSS	high polyreactivity
QVQLQESVVGLVLAGGSLRLICSASANISVYGSMGWYRKAPGKEREFVATIDPGTNTNYADSVKDRFTISRDNAKNTVFLQINSLKPEYTAVYYCAVEGGSDWPYRYWGQGTQVTVSS	low polyreactivity
QVQLQQSGGGLVQAGGSLRLSCAASGSIFDGFNMGWYRQAPGKAREFVAAIRYGASTYYADSVKGRFTVSRDNAKNSVYLQMNSLNPEDTAVYYCAKAYSDGYFPTFDYDYWGQGTQVTVSS	low polyreactivity
QVQLQVSGGDLVQAGGSLRLSCAASGTIYGLTSMGWYRQAPGKEREFVAAITDGGNTNYADSVKGRFTISRDNAKNSVYLQMISLTPEDTAVYYCALLFSDEAYYAYCGQGTQVTVSS	low polyreactivity
QVQLQVSGGGLVQAGGSLRLSCEASGSIFLTSEMGWYRQAPGIERELVAAIATGTSTNYADSVKGRFTISRDNAKNTVYLQMNSLKPEDTAVYYCATYHYWGQGTQVTVSS	low polyreactivity
QVQLRESGAGGRQPAPELLGERQYFYWSADGLVSQAPGKEREFVAGIDRGTITNYADSVRGRFTISRDNAKNTVFRQMNSLKPEDTAVYYCAVPAYGDPRSYYWGQGTHVTVSS	high polyreactivity
